Paper PMC9035508

Experiments:
Assay in all cases: ELISA; FXIII proteins or collagen type III coated on wells at 10 µg/mL (overnight, 4°C), blocked with 0.5% BSA; GPVI-Fc2 added at varied concentrations; bound GPVI detected by 1G5/IRDye 800CW anti-mouse antibody; KD from binding curves (Figure 1B)
[1] = target: FXIII A-subunit (rh-FXIIIA2), recombinant, not fully activated form (human) (UniProt P00488)
[2] = target: FXIII A-subunit (activated) (rh-FXIIIAa), thrombin-activated form of rh-FXIIIA2 (human) (UniProt P00488)
[3] = target: Plasma FXIII (FXIIIA2B2), tetrameric, not activated (human) (UniProt P00488)
collagen type III = collagen type III (UniProt P02461)
UniProt P02461, sequence (P02461 24-1221): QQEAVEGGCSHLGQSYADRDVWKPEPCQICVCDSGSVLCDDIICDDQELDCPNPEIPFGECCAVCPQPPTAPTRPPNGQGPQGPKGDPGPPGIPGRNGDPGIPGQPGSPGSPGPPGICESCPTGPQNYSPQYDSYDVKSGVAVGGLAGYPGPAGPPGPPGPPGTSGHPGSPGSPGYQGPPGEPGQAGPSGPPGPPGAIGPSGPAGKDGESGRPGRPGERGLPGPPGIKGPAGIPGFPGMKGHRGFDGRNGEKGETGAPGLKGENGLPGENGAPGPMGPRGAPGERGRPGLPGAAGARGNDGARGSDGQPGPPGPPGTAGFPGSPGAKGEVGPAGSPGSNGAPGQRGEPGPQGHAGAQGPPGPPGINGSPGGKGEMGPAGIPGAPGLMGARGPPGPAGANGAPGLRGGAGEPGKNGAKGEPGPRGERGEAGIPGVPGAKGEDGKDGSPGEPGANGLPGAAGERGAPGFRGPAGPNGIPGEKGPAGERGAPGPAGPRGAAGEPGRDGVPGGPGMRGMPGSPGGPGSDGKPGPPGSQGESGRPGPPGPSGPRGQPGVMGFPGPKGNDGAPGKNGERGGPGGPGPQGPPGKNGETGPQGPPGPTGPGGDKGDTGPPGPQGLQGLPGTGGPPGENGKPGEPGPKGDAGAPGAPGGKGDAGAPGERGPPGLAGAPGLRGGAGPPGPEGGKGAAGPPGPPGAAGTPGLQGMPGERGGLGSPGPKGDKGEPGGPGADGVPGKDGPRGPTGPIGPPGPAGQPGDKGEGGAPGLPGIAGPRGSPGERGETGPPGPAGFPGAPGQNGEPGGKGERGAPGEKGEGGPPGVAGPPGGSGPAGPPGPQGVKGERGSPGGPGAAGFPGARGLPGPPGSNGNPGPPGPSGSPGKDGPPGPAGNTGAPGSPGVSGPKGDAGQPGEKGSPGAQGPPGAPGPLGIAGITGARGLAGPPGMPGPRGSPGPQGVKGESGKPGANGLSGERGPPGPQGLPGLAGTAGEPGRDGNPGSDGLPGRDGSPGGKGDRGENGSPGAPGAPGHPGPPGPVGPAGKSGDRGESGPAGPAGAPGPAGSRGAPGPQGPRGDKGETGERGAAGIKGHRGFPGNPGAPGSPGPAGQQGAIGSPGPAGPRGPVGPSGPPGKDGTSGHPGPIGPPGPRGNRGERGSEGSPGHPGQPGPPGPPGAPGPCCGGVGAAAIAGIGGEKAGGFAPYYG

Kd [1]: 366 nM
Kd [2]: 140 nM
Kd [3]: 216 nM
Kd (collagen type III): 183 nM
Substance: GPVI-Fc2 (recombinant human GPVI extracellular domain, dimer) (from UniProt Q9HCN6 21-267) (Fc fusion)
